Changes are numbered by the printed parent chain.
T1: canine OSMR on canine cells (canine, UniProt A0A8I3MI11 28-967)
T1 sequence: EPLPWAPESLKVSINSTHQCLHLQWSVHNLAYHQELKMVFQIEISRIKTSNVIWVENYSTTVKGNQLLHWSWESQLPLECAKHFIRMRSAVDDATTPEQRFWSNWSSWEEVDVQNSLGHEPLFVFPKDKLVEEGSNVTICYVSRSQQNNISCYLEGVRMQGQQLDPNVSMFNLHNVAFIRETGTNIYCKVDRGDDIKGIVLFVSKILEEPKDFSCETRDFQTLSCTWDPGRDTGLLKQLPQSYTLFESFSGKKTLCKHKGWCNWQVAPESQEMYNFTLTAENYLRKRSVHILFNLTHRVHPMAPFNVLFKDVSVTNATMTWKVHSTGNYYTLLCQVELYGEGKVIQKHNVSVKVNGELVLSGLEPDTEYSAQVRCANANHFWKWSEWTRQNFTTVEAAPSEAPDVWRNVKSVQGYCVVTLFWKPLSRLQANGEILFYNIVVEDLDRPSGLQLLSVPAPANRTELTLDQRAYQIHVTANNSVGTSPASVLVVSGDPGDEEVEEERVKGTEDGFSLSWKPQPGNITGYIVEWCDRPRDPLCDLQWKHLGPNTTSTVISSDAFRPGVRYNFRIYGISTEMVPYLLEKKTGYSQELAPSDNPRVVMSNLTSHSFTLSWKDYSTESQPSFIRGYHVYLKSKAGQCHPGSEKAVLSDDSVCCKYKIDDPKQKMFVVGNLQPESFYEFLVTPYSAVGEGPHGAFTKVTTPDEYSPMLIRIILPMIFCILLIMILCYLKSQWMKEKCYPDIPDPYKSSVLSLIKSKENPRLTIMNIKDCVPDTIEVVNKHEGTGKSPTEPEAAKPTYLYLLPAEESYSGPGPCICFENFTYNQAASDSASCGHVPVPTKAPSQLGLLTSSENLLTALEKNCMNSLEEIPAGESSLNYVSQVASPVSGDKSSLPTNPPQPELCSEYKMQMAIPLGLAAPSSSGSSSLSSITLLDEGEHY

T2: feline OSMR on feline Fcwf-4 cells (feline, UniProt A0ABI8A843 28-960)
T2 sequence: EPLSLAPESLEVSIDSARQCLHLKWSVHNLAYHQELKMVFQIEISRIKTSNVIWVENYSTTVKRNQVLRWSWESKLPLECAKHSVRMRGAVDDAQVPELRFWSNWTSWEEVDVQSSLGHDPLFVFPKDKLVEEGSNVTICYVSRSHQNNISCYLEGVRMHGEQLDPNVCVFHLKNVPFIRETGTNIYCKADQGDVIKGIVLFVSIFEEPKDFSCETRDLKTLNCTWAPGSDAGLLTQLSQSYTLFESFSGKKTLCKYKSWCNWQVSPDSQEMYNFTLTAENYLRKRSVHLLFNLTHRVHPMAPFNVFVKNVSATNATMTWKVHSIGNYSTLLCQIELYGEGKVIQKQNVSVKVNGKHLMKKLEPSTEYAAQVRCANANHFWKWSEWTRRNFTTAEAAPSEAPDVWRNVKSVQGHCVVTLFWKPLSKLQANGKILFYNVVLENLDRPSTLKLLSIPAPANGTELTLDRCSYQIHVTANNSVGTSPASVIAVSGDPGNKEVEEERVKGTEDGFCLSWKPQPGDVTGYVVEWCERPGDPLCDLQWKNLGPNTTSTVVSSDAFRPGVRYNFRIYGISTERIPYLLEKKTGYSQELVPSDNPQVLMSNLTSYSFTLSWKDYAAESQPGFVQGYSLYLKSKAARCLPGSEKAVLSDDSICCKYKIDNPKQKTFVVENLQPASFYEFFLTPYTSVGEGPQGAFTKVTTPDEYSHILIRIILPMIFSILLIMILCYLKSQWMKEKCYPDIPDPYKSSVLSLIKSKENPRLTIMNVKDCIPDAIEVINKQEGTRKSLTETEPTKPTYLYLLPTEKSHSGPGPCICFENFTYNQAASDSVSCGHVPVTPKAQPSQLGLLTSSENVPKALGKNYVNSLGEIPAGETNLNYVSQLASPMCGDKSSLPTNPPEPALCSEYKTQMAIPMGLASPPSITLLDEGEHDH

T3: Human_OSMR (human, UniProt Q99650 28-739)
T3 construct: Bought protein; also called hOSMR
T3 sequence: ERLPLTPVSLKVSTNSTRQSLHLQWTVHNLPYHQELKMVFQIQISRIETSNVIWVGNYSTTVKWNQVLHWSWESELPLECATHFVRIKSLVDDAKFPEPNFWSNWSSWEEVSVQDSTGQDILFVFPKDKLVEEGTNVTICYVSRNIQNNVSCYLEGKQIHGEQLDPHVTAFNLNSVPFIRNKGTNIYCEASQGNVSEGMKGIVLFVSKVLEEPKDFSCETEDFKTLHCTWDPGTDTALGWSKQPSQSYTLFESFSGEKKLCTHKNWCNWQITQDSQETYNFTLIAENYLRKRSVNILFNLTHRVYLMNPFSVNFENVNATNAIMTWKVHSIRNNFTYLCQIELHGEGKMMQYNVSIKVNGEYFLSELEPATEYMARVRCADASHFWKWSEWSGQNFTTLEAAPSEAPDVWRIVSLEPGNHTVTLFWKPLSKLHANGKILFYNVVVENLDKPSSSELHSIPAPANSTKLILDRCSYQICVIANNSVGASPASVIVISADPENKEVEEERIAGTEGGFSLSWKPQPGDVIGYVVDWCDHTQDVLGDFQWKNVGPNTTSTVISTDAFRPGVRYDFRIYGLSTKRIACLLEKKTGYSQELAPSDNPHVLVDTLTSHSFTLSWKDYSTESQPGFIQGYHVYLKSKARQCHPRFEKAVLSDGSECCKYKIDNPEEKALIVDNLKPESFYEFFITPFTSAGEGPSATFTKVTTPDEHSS

B1: Mu_09E09 (antibody, V domains shown)
VH: DVKLVESGEGLVKPGGSLKLSCAASGFTFSSYAMSWVRQTPEKRLEWVAYISSGGDYIYYADTVKGRFTISRDNARNTLYLQMSSLKSEDTAMYYCTRDPITGTFAYWGQGTLVTVSA
VL: DLQMTQTTSSLSASLGDRVTISCRASQDINNYLNWYQQKPDGTVKLLIYYTSTLHSGVPSRFSGSGSGTDYSLTISNLEQEDIATYFCQQGNTLPWTFGGGTKLEIK
notes: Mouse hybridoma IgG
B2: Mu_10F07 (antibody, V domains shown)
VH: B1 VH with A49T, I58F
VL: B1 VL with L2I, N30T, Y71F, N92H, T93M
notes: Mouse hybridoma IgG
B3: Mu_02D09 (antibody, V domains shown)
VH: EVQLVESGGGLVKPGGSLTLSCAASGFTFSDYGMHWLRQAPEKGLEWVAYISSGSRAVFFADTVKGRFTISRDNAKNTLFLQMTSLRSDDTAMYYCARDRYDGRGFAYWGQGTLVTVSA
VL: DIVLTQSPATLSVTPGDSVSLSCRASQSISNNLHWYQQTSHESPRLLITYASQSISGIPSRFSGSGSGTDFTLSINSVETEDFGMYFCQQSNSWPLTFGAGTKLELK
notes: Mouse hybridoma IgG; also called mouse anti-OSMR 02D09
B4: Mu_14C04 (antibody, V domains shown)
VH: EVQLQESGAELVKPGASVKISCKASGYAFSNYWMNWMKQRPGKGLEWIGQIYPGHVNTNYNGNFKDKATLTADKSSSTAYMQLSSLTSEDSAVYFCARSADNSGFVLFAYWGQGTLVTVS
VL: DIVLTQSPASLAVSLGQRATISCRASKSVSTSGYSYLHWYQQKPGQPPKLLIFLASNLESGVPARFSGSGSGTDFTLNIHPVEEEDAATYYCQHSRELPLTFGAGTKLELK
notes: Mouse hybridoma IgG
B5: Mu_19F07_VL (SEQ ID NO: 49)_T53A (antibody, V domains shown)
VH: EVKLVESEGGLVQPGSSMKLSCTASGFTFSDYYMAWVRQVPEKGLEWVANINYDGSSTYYLDSLKSRFIISRDNAKNILYLQMSSLKSEDTATYYCARGLTWDFDVWGTGTTVTVSS
VL: DIVMTQSHKFMSPSVGDRVSITCKASQDVDTAVAWYQQKPGQSPKLLIYLASARHTGVPDRFTGSGSGTDFTLTISNVQSEDLADYFCQQYSRFPLTFGAGTKLELKR
B6: Mu_19F07_VL (SEQ ID NO: 49)_Q90A (antibody, V domains shown)
VH: B5 VH
VL: B5 VL with A53T, Q90A
B7: Mu_19F07_VL (SEQ ID NO: 49)_F94A (antibody, V domains shown)
VH: B5 VH
VL: B5 VL with A53T, F94A
B8: Mu_19F07_VL (SEQ ID NO: 49)_Q89A (antibody, V domains shown)
VH: B5 VH
VL: B5 VL with A53T, Q89A

biological target: T1, canine OSMR on canine cells; assay: cell-based or functional assay

Row | % inh of canine IL-31 pSTAT3 signaling, canine DH82 cells [% inh @ 75 µg/ml] | IC50, inhibition of canine OSM pSTAT3 signaling, canine DH82 cells [µg/ml] | IC50, inhibition of canine IL-31 pSTAT3 signaling, canine DH82 cells [µg/ml] | Binder
1 | 80 | – | – | B1
2 | 93 | 0.05 | – | B2
3 | 0 | > 50 | – | B3
4 | – | 8.64 | 5.65 | B4

biological target: T2, feline OSMR on feline Fcwf-4 cells; assay: cell-based or functional assay

Row | % inh of feline IL-31 pSTAT3 signaling, feline Fcwf-4 cells [% inh @ 75 µg/ml] | IC50, inhibition of canine OSM pSTAT3 signaling, feline Fcwf-4 cells [µg/ml] | Binder
5 | 63 | – | B1
6 | 91 | 0.23 | B2
7 | 67 | – | B3
8 | 0 | – | B4

biological target: T4, ANTIBODY EXPRESSION CONTROL; assay: SPR Biacore, expression control
T4 construct: also called mouse anti-canine antibody (capture reagent of the expression control ELISA)
Protocol: The affinity with which candidate mAbs bind canine, feline, and human (SEQ ID NO: 122; Human_OSMR) (R&D Systems, Minneapolis, Minn.) OSMR was determined using surface plasmon resonance (SPR) on a Biacore system (Biacore Life Sciences (GE Healthcare), Uppsala, Sweden). To avoid affinity differences associated with differential surface preparation that can occur when immobilizing antibodies to surfaces; OSMR from each species was directly conjugated to individual surfaces. Immobilization was obtained by amine coupling 5 μg/mL OSMR using N-hydroxysuccinimide (NHS)/1-Ethyl-3-(3-dimethylaminopropyl) carbodiimide (EDC) chemistry. Chips were quenched with ethanolamine and the affinity with which all candidate mAbs bound to the immobilized OSMR was evaluated. All curves were fit to a 1:1 model. […] Results for affinity measurements are described herein.
Data from an ELISA represents an equilibrium state where the antibody is allowed to associate and dissociate over a one-hour period resulting in steady-state binding. Using Biacore, the target protein is immobilized to a surface and the antibody is passed over this surface in a mobile liquid phase. Protein-protein interaction is determined from changes in the surface resonance which allows for calculation of association (kₐ), disassociation (kd), and affinity constant (KD). While not wishing to be bound to one hypothesis we present data from ELISA and Biacore experiments, using the same preparation of antibody, that may result in agreement between the two methods with respect to binding but also may show contradictory results due to the nature of the binding kinetics and different assay dynamics. The data presented in Table A (in combination with experimental results from yeast display mutational analysis in Example 21) allow for the definition of a structure:function relationship to be defined between the anti-OSMR antibodies described here and their ability to bind and block IL-31 and OSM-mediated signaling through the OSMR receptor.

Row | Kd [pM] | koff [s⁻¹] | kon [M⁻¹ s⁻¹] | Binder
9 | 123 | 3.75e-05 | 305000 | B5
10 | 161 | 5.29e-05 | 329000 | B6
11 | 160 | 5.35e-05 | 335000 | B7
12 | 135 | 4.3e-05 | 319000 | B8

biological target: T3, Human_OSMR; assay: SPR Biacore, OSMR on chip

Row | binding result | Binder
13 | no binding | B1
14 | no binding | B2
15 | no binding | B3
16 | no binding | B4

biological target: T1, canine OSMR on canine cells; assay: cell-based or functional assay; remark: another data set of the same source

Row | % inh of canine IL-31 pSTAT3 signaling, canine DH82 cells [% inh] | IC50, inhibition of canine OSM pSTAT3 signaling, canine DH82 cells [µg/ml] | Binder
17 | 80 | – | B1
18 | 93 | 0.04 | B2
19 | 0 | > 50 | B3
20 | 72 | 0.73 | B4

biological target: T2, feline OSMR on feline Fcwf-4 cells; assay: cell-based or functional assay; remark: another data set of the same source

Row | % inh of feline IL-31 pSTAT3 signaling, feline Fcwf-4 cells [% inh] | Binder
21 | 63 | B1
22 | 91 | B2
23 | 67 | B3
24 | 0 | B4

Source: patent US20220177594A1 (ZOETIS SERVICES, published 2022)
